Data reported in patent publication US20180282410A1 (Hoffmann-La Roche, published 2018).
Positions count from the first letter of the chain named. Where two headings read alike, the source gives them in different places.

B1: Molecule L, 2+1 Fab-Fab-CrossFab (VH/VL exchange in CD3 binder, CD3 binder V9, Robo 4 binders 01F05) (bispecific antibody)
chain 1: QVQLKQSGAELVKPGASVKISCKTSVYTFTYGYMHWVEQKPGQGLEWIGRIDPDSGNSMYNQKFQGRATLTRDKSSSTVYMELRSLTSEDSAVYYCARSMRYSGYRDYALDLWGQGTQVTVSSASTKGPSVFPLAPSSKSTSGGTAALGCLVKDYFPEPVTVSWNSGALTSGVHTFPAVLQSSGLYSLSSVVTVPSSSLGTQTYICNVNHKPSNTKVDKKVEPKSCDGGGGSGGGGSQVQLKQSGAELVKPGASVKISCKTSVYTFTYGYMHWVEQKPGQGLEWIGRIDPDSGNSMYNQKFQGRATLTRDKSSSTVYMELRSLTSEDSAVYYCARSMRYSGYRDYALDLWGQGTQVTVSSASTKGPSVFPLAPSSKSTSGGTAALGCLVKDYFPEPVTVSWNSGALTSGVHTFPAVLQSSGLYSLSSVVTVPSSSLGTQTYICNVNHKPSNTKVDKKVEPKSCDGGGGSGGGGSDIQMTQSPSSLSASVGDRVTITCRASQDIRNYLNWYQQKPGKAPKLLIYYTSRLESGVPSRFSGSGSGTDYTLTISSLQPEDFATYYCQQGNTLPWTFGQGTKVEIKSSASTKGPSVFPLAPSSKSTSGGTAALGCLVKDYFPEPVTVSWNSGALTSGVHTFPAVLQSSGLYSLSSVVTVPSSSLGTQTYICNVNHKPSNTKVDKKVEPKSC
chain 2: QLVLTQSPSASASLGASVKLTCTLSSQHSSYGITWLQQHPDKAPKYVMYLKSDGSHTKGADIPDRFSGSSSGVHRYLSISNVQPEDEAIYFCVTYDSTHVFGSGTQLTVLGQPKAAPSVTLFPPSSEELQANKATLVCLISDFYPGAVTVAWKADSSPVKAGVETTTPSKQSNNKYAASSYLSLTPEQWKSHRSYSCQVTHEGSTVEKTVAPTECS
chain 3: EVQLVESGGGLVQPGGSLRLSCAASGYSFTGYTMNWVRQAPGKGLEWVALINPYKGVSTYNQKFKDRFTISVDKSKNTAYLQMNSLRAEDTAVYYCARSGYYGDSDWYFDVWGQGTLVTVSSASVAAPSVFIFPPSDEQLKSGTASVVCLLNNFYPREAKVQWKVDNALQSGNSQESVTEQDSKDSTYSLSSTLTLSKADYEKHKVYACEVTHQGLSSPVTKSFNRGEC
B2: Molecule F, 2+1 CrossFab-IgG (VH/VL exchange in CD3 binder, CD3 binder V9, Robo 4 binders 01F05) (bispecific antibody)
chain 1: not shown
chain 2: QVQLKQSGAELVKPGASVKISCKTSVYTFTYGYMHWVEQKPGQGLEWIGRIDPDSGNSMYNQKFQGRATLTRDKSSSTVYMELRSLTSEDSAVYYCARSMRYSGYRDYALDLWGQGTQVTVSSASTKGPSVFPLAPSSKSTSGGTAALGCLVKDYFPEPVTVSWNSGALTSGVHTFPAVLQSSGLYSLSSVVTVPSSSLGTQTYICNVNHKPSNTKVDKKVEPKSCDKTHTCPPCPAPEAAGGPSVFLFPPKPKDTLMISRTPEVTCVVVDVSHEDPEVKFNWYVDGVEVHNAKTKPREEQYNSTYRVVSVLTVLHQDWLNGKEYKCKVSNKALGAPIEKTISKAKGQPREPQVCTLPPSRDELTKNQVSLSCAVKGFYPSDIAVEWESNGQPENNYKTTPPVLDSDGSFFLVSKLTVDKSRWQQGNVFSCSVMHEALHNHYTQKSLSLSPGK
chain 3: B1 chain 2
chain 4: B1 chain 3
B3: Molecule M, 2+1 CrossFab-IgG, inverted, with charge modifications (VH/VL exchange in CD3 binder, charge modification in Robo 4 binders, CD3 binder of SEQ ID … (bispecific antibody)
chain 1: QVQLKQSGAELVKPGASVKISCKTSVYTFTYGYMHWVEQKPGQGLEWIGRIDPDSGNSMYNQKFQGRATLTRDKSSSTVYMELRSLTSEDSAVYYCARSMRYSGYRDYALDLWGQGTQVTVSSASTKGPSVFPLAPSSKSTSGGTAALGCLVEDYFPEPVTVSWNSGALTSGVHTFPAVLQSSGLYSLSSVVTVPSSSLGTQTYICNVNHKPSNTKVDEKVEPKSCDKTHTCPPCPAPEAAGGPSVFLFPPKPKDTLMISRTPEVTCVVVDVSHEDPEVKFNWYVDGVEVHNAKTKPREEQYNSTYRVVSVLTVLHQDWLNGKEYKCKVSNKALGAPIEKTISKAKGQPREPQVCTLPPSRDELTKNQVSLSCAVKGFYPSDIAVEWESNGQPENNYKTTPPVLDSDGSFFLVSKLTVDKSRWQQGNVFSCSVMHEALHNHYTQKSLSLSP
chain 2: not shown
chain 3: EVQLLESGGGLVQPGGSLRLSCAASGFTFSTYAMNWVRQAPGKGLEWVSRIRSKYNNYATYYADSVKGRFTISRDDSKNTLYLQMNSLRAEDTAVYYCVRHGNFGNSYVSWFAYWGQGTLVTVSSASVAAPSVFIFPPSDEQLKSGTASVVCLLNNFYPREAKVQWKVDNALQSGNSQESVTEQDSKDSTYSLSSTLTLSKADYEKHKVYACEVTHQGLSSPVTKSFNRGEC
chain 4: B1 chain 2 with E127K, E128K
B4: Molecule A, 1+1 CrossFab-IgG (VH/VL exchange in CD3 binder, CD3 binder V9, Robo 4 binder 01F09) (bispecific antibody)
chain 1: not shown
chain 2: QPVLTQSPSASASLGASVKLTCTLNSQFSTYNIGWYQQHRDKPPKYVMFVKGDGGHSKADGIPDRFSGSSSGADRYLTISNIQAEDEAIYFCGADYNNAGQYGCVFGSGTHFTVLGQPKAAPSVTLFPPSSEELQANKATLVCLISDFYPGAVTVAWKADSSPVKAGVETTTPSKQSNNKYAASSYLSLTPEQWKSHRSYSCQVTHEGSTVEKTVAPTECS
chain 3: B1 chain 3
chain 4: DKTHTCPPCPAPEAAGGPSVFLFPPKPKDTLMISRTPEVTCVVVDVSHEDPEVKFNWYVDGVEVHNAKTKPREEQYNSTYRVVSVLTVLHQDWLNGKEYKCKVSNKALGAPIEKTISKAKGQPREPQVCTLPPSRDELTKNQVSLSCAVKGFYPSDIAVEWESNGQPENNYKTTPPVLDSDGSFFLVSKLTVDKSRWQQGNVFSCSVMHEALHNHYTQKSLSLSPGK
B5: Molecule H, 1+1 Fab-CrossFab (VH/VL exchange in CD3 binder, CD3 binder V9, Robo 4 binder 7G2) (bispecific antibody)
chain 1: not shown
chain 2: EIVLTQSPGTLSLSPGERATLSCRASQSVSSSYLAWYQQKPGQAPRLLIYGASSRATGIPDRFSGSGSGTDFTLTISRLEPEDFAVYYCQQGQLPPRTFGQGTKVEIKRTVAAPSVFIFPPSDEQLKSGTASVVCLLNNFYPREAKVQWKVDNALQSGNSQESVTEQDSKDSTYSLSSTLTLSKADYEKHKVYACEVTHQGLSSPVTKSFNRGEC
chain 3: B1 chain 3
B6: Molecule D, 1+1 CrossFab-IgG (VH/VL exchange in CD3 binder, CD3 binder V9, Robo 4 binder 7G2) (bispecific antibody)
chain 1: not shown
chain 2: B5 chain 2
chain 3: B1 chain 3
chain 4: B4 chain 4

Assays:
Test in all cases: cell-based or functional assay
[1] = target: T1, full-length human Robo 4 (on cells) (human, UniProt Q8WZ75 28-1007)
T1 sequence: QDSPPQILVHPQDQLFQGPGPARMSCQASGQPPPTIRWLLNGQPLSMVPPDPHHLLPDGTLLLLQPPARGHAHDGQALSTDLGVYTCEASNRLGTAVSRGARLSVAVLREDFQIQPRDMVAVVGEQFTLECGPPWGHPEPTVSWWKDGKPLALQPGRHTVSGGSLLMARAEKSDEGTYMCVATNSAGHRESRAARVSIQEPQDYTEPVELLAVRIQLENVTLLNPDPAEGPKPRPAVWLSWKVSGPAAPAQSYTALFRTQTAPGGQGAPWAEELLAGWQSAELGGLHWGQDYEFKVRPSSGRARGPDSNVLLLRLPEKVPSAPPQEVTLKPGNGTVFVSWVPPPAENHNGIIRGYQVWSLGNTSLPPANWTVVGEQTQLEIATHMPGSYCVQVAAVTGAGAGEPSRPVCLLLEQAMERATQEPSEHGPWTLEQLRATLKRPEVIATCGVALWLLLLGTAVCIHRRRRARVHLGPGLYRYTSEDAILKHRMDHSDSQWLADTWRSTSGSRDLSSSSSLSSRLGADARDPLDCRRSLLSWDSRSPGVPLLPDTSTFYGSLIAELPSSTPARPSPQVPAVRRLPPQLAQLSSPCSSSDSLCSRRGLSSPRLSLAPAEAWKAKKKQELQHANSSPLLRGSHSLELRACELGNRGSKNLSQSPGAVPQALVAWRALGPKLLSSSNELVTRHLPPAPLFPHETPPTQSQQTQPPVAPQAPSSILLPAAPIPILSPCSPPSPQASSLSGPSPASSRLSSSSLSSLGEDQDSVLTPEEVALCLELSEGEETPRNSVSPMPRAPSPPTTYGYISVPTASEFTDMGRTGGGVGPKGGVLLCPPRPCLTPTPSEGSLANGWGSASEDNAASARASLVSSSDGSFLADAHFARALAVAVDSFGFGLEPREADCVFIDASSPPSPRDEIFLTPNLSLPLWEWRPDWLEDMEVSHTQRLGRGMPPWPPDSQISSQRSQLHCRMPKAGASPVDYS

[2] = target: T2, mouse Robo 4 on MS-1 mouse endothelial cells (mouse, UniProt Q8C310 28-1012)
T2 sequence: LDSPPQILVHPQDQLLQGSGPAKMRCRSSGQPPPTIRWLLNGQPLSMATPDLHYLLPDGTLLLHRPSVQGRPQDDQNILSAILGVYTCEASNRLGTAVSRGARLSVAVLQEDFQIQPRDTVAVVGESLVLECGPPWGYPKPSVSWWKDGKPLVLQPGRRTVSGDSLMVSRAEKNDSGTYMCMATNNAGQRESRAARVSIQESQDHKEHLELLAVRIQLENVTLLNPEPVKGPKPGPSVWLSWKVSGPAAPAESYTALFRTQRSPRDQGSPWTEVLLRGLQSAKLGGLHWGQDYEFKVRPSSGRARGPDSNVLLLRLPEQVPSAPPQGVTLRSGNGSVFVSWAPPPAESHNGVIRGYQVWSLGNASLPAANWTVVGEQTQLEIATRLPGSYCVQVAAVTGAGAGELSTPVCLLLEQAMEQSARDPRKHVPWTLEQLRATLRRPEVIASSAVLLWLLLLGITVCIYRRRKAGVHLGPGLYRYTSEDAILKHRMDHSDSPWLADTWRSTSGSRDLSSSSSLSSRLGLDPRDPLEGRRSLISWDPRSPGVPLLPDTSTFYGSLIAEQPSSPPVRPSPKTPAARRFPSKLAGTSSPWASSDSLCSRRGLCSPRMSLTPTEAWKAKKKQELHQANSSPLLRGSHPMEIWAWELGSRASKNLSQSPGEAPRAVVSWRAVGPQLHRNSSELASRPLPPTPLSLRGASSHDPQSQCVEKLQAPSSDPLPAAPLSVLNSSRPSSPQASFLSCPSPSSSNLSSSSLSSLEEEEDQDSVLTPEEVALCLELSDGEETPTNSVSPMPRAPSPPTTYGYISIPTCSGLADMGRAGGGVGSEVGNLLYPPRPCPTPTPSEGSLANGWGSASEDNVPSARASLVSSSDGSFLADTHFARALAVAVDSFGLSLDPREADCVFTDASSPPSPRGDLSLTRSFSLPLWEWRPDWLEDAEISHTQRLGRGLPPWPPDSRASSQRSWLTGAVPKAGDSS

[3] = target: T1, full-length human Robo 4 (on cells); remark: listed apart in the source
[4] = target: T1, full-length human Robo 4 (on cells); remark: listed apart in the source

| Binder | EC50 of T-cell mediated killing of HUVECs (LDH release, human PBMCs, E:T 10:1), 24 h [1] [pM] | EC50 of T-cell mediated killing of HUVECs (LDH release, human PBMCs, E:T 10:1), 48 h [1] [pM] | EC50 of T-cell mediated killing of MS-1 cells (LDH release, human PBMCs, E:T 10:1), 24 h [2] [pM] | EC50 of T-cell mediated killing of MS-1 cells (LDH release, human PBMCs, E:T 10:1), 48 h [2] [pM] | EC50 of T-cell mediated killing of HUVECs (LDH release, human PBMCs, E:T 10:1), 24 h [3] [pM] | EC50 of T-cell mediated killing of HUVECs (LDH release, human PBMCs, E:T 10:1), 48 h [3] [pM] | EC50 of T-cell mediated killing of HUVECs (LDH release, human pan T cells, E:T 5:1, 22 h) [4] [pM] |
| --- | --- | --- | --- | --- | --- | --- | --- |
| B1 | 372 | 236 |  |  |  |  |  |
| B2 | 65 | 322 | ~164 | 196 | 104 | 154 |  |
| B3 |  |  | 275 | 119 | 173 | 125 |  |
| B4 |  |  |  |  |  |  | 137 |
| B5 |  |  |  |  |  |  | 2760 |
| B6 |  |  |  |  |  |  | 3140 |
